Assay [1] concerns the target CR8071 lambda light chain K129T_V133D (L1 of designs 3102 and 3109, system C). Put plainly: SMCA LC-MS.
For assay [2] the target is unchanged. Put plainly: SMCA LC-MS. This is another data set of the same source.
Assay [3] has the same target. Briefly: SMCA LC-MS. The source holds these as a separate data set.
In assay [4] the target is Design 3947 L2: SGN-CD19a kappa light chain S131K_S176K. Put plainly: SMCA: H1, L1, H2, L2 co-expressed, protein A, LC-MS.
The target is the same in assay [5]. The description is as above. This is another data set of the same source.
Assay [6] shares this target. Described as above. This is another data set of the same source.
Assay [7] deals with Design 3951 L2: SGN-CD19a kappa light chain S121K_S131K_S176K. The description is as above.
The target is the same in assay [8]. The description is as above. The source holds these as a separate data set.
Assay [9] shares this target. The assay is described as above. The source holds these as a separate data set.
For assay [10], the target named is CAT-2200 lambda light chain S176K_Y178R (L1), N-terminal FLAG tag. Put plainly: LCCA, SPR of light chain tags.
Assay [11] concerns the target Pertuzumab kappa light chain V133G_S176D (L2), N-terminal HA tag. Briefly: LCCA, SPR of light chain tags.
Assay [12] addresses Pertuzumab kappa light chain V133G_S176D_T178D (L2), N-terminal HA tag. Put plainly: LCCA, SPR of light chain tags.
Assay [13] has as its target Pertuzumab kappa light chain V133G_S176D (L2), N-terminal HA tag. Briefly: LCCA, SPR of light chain tags. The source holds these as a separate data set.
Assay [14] shares this target. Briefly: LCCA, SPR of light chain tags. This is another data set of the same source.
The target of assay [15] is CAT-2200 lambda light chain S176K_Y178K (L1), N-terminal FLAG tag. Put plainly: LCCA, SPR of light chain tags.
Assay [16] addresses CAT-2200 lambda light chain S176K_Y178L (L1), N-terminal FLAG tag. Briefly: LCCA, SPR of light chain tags.
Assay [17] concerns the target CAT-2200 lambda light chain S176K_Y178R (L1), N-terminal FLAG tag. Put plainly: LCCA, SPR of light chain tags. The source holds these as a separate data set.
The target of assay [18] is Pertuzumab kappa light chain Q124E_V133D (L2), N-terminal HA tag. Put plainly: LCCA, SPR of light chain tags.
The target in assay [19] is Pertuzumab kappa light chain V133D (L2), N-terminal HA tag. Briefly: LCCA, SPR of light chain tags.
Assay [20] concerns the target Pertuzumab kappa light chain Q124E_V133D (L2), N-terminal HA tag. Briefly: LCCA, SPR of light chain tags. This is another data set of the same source.
Assay [21] addresses Pertuzumab kappa light chain V133D (L2), N-terminal HA tag. Put plainly: LCCA, SPR of light chain tags. This is another data set of the same source.
Assay [22] deals with Pertuzumab kappa light chain Q124E_V133D (L2), N-terminal HA tag. Briefly: LCCA, SPR of light chain tags. This is another data set of the same source.
The target of assay [23] is CAT-2200 lambda light chain S176K_Y178R (L1), N-terminal FLAG tag. Briefly: LCCA, SPR of light chain tags. This is another data set of the same source.
For assay [24], the target named is Pertuzumab kappa light chain S131D_V133G_T178F (L2), N-terminal HA tag. Put plainly: LCCA, SPR of light chain tags.
Assay [25] deals with Pertuzumab kappa light chain S131E_V133G_T178F (L2), N-terminal HA tag. Briefly: LCCA, SPR of light chain tags.
Assay [26] addresses Pertuzumab kappa light chain S176D_T178E (L2), N-terminal HA tag. Put plainly: LCCA, SPR of light chain tags.
The target of assay [27] is Pertuzumab kappa light chain S176E_T178E (L2), N-terminal HA tag. Briefly: LCCA, SPR of light chain tags.
The target of assay [28] is Pertuzumab kappa light chain S131D_V133G_T178F (L2), N-terminal HA tag. Put plainly: LCCA, SPR of light chain tags. This is another data set of the same source.
Assay [29] has as its target Pertuzumab kappa light chain S131E_V133G_T178F (L2), N-terminal HA tag. Put plainly: LCCA, SPR of light chain tags. This is another data set of the same source.
In assay [30] the target is Pertuzumab kappa light chain S176D_T178E (L2), N-terminal HA tag. Briefly: LCCA, SPR of light chain tags. The source holds these as a separate data set.
Assay [31] concerns the target Pertuzumab kappa light chain S176E_T178E (L2), N-terminal HA tag. Briefly: LCCA, SPR of light chain tags. The source holds these as a separate data set.
Assay [32] has as its target Pertuzumab kappa light chain S131D_V133G_T178F (L2), N-terminal HA tag. Briefly: LCCA, SPR of light chain tags. The source holds these as a separate data set.
The target of assay [33] is Pertuzumab kappa light chain S131E_V133G_T178F (L2), N-terminal HA tag. Put plainly: LCCA, SPR of light chain tags. This is another data set of the same source.
The target of assay [34] is Pertuzumab kappa light chain S176D_T178E (L2), N-terminal HA tag. Briefly: LCCA, SPR of light chain tags. This is another data set of the same source.
In assay [35] the target is Pertuzumab kappa light chain S176E_T178E (L2), N-terminal HA tag. Briefly: LCCA, SPR of light chain tags. This is another data set of the same source.
Assay [36] concerns the target CAT-2200 lambda light chain S176K_Y178L (L1), N-terminal FLAG tag. Put plainly: LCCA, SPR of light chain tags. This is another data set of the same source.
Assay [37] has as its target CAT-2200 lambda light chain S176K_Y178R (L1), N-terminal FLAG tag. Put plainly: LCCA, SPR of light chain tags. This is another data set of the same source.
The target of assay [38] is CAT-2200 lambda light chain S176K_Y178K (L1), N-terminal FLAG tag. Briefly: LCCA, SPR of light chain tags. This is another data set of the same source.
The target in assay [39] is CAT-2200 lambda light chain S176K_Y178L (L1), N-terminal FLAG tag. Put plainly: LCCA, SPR of light chain tags. This is another data set of the same source.
For assay [40], the target named is CAT-2200 lambda light chain S176K_Y178R (L1), N-terminal FLAG tag. Put plainly: LCCA, SPR of light chain tags. The source holds these as a separate data set.
In assay [41] the target is CAT-2200 lambda light chain Y178K (L1), N-terminal FLAG tag. Put plainly: LCCA, SPR of light chain tags.
The target of assay [42] is Pertuzumab kappa light chain S176D_T178E (L2), N-terminal HA tag. Put plainly: LCCA, SPR of light chain tags. This is another data set of the same source.
In assay [43] the target is Pertuzumab kappa light chain S176E_T178E (L2), N-terminal HA tag. Put plainly: LCCA, SPR of light chain tags. This is another data set of the same source.
The target of assay [44] is Pertuzumab wild-type kappa light chain with N-terminal FLAG tag. Briefly: SMCA: H1, H2, L1, L2 co-expressed in CHO-3E7.
The target of assay [45] is SGN-CD19a kappa light chain Q124K_V133A_T178R (L2 of design 3109, systems B and C). Briefly: SMCA LC-MS.
For assay [46] the target is unchanged. Briefly: SMCA LC-MS. The source holds these as a separate data set.
Assay [47] shares this target. Briefly: SMCA LC-MS. This is another data set of the same source.

Where two headings read alike, the source gives them in different places.

In the case of “CR8071 heavy chain L143K (H1 of designs 3102 and 3109, system C)”, the % H1L1 Pairing worked out at 88.7% in assay [1] and 84% in assay [2]. In addition, the Change in % H1L1 Pairing with respect to wild type in assay [1] is 6.4%; in assay [3] it was 15.9%.

Consider “Design 3947 H2: SGN-CD19a heavy chain K145T_S186E”, for which the figures for the % H2L2 Pairing in assay [4] and in [6] were 70.3% and 94.5%, respectively. The Change in % H2L2 Pairing with respect to wild type in assay [5] was determined as 16.1%; in [6], 23.2%.

On to “Design 3951 H2: SGN-CD19a heavy chain K145T_S186E_K228D”, for which the % H2L2 Pairing in assay [7] turned out to be 77.5%; in assay [9], 97.1%. Besides, the Change in % H2L2 Pairing with respect to wild type in assay [8] was 23.3%; in assay [9], 25.8%.

“Pertuzumab Fab heavy chain L124R (H2), ABD2-His6 tagged”: the H2L2:H2L1 normalized median ratio in assay [10] was 39%; in assay [11], 84%; in assay [12] it was 61%; in assay [13], 85%; in assay [14] it was 74%; in [15], 16%. The H2L2:H2L1 normalized median ratio in assay [16] was found to be 26%; in assay [17] it was 15%. The H2L2:H2L1 normalized median scalar value ln(r1/f1) worked out at 1.63 in [11], 0.43 in assay [12], 1.75 in assay [13] and 1.06 in assay [14].

In the case of “Pertuzumab Fab heavy chain L143K (H2), ABD2-His6 tagged”, the H2L2:H2L1 normalized median ratio stood at 86% in [18]; 77% in assay [19]; 88% in assay [20]; 80% in [21]; 93% in assay [22]; 20% in assay [23]. Also, the H2L2:H2L1 normalized median ratio in [15] was determined as 14%; in assay [17], 12%. Besides, the H2L2:H2L1 normalized median scalar value ln(r1/f1) stood at 1.78 in assay [18]; 1.2 in [19]; 1.95 in [20]; 1.39 in assay [21]; 2.64 in assay [22].

As to “Pertuzumab Fab heavy chain S188K (H2), ABD2-His6 tagged”, the H2L2:H2L1 normalized median ratio stood at 86% in [24]; 86% in assay [26]; 89% in assay [28]; 90% in assay [30]; 95% in assay [31]; 85% in assay [32]. Further, the H2L2:H2L1 normalized median ratio in assay [34] turned out to be 86%; in [35], 95%; in assay [36], 5%; in assay [37], 5%; in assay [38], 14%; in assay [39], 15%. The H2L2:H2L1 normalized median ratio in assay [40] amounted to 11%; in assay [41], 20%; in assay [15], 14%; in [16], 14%; in [42], 80%; in [17], 9%. The H2L2:H2L1 normalized median scalar value ln(r1/f1) in assay [24] came to 1.85; in [25], 2.77; in assay [26] it was 1.83; in assay [27] it was 2.75; in assay [28], 2.09; in assay [29], 2.35. For the same substance, the H2L2:H2L1 normalized median scalar value ln(r1/f1) is 2.16 in assay [30]; 2.87 in assay [31]; 1.77 in [32]; 2.17 in [33]; 1.78 in assay [34]; 2.96 in [35]. For the same substance, the H2L2:H2L1 normalized median scalar value ln(r1/f1) in [42] came out at 1.41; in assay [43] it was 2.67.

Consider “Pertuzumab wild-type full-length IgG1 heavy chain (heterodimeric Fc) (from UniProt P0DOX5 2-448)”, for which the % H2L2 Pairing (over all H2 species) in assay [44] came out at 79.9%.

Take “SGN-CD19a heavy chain L124W_L143E_K145T_Q179E (H2 of design 3109, systems B and C)”: the % H2L2 Pairing was 97.1% in [45] and 99.6% in assay [46]. The Change in % H2L2 Pairing with respect to wild type was 42.9% in assay [45] and 28.3% in assay [47].

For the origin of these results see patent publication US20190338048A1.
